Literature values in PMC5266483.

Molecular target: Lys14 (position 14, …)
Test: NMR
Settings: 37 °C; Transmembrane helix in DOPC

B1: GWALP23-K14 (synthetic construct; L14K) (peptide)
chain: GGALWLALALALAKALALWLAGA
In the case of B1, the pKa is given as 6.5.
